For one substance, Kd results are on record in PMC10148139.

The target in the assay is MAGE D2 MAGE homology domain (MHD), amino acids 261–521 (human) (UniProt Q9UNF1). The assay is described as follows: MST.

A word on the Kd: it is the constant that tells how readily two partners part at equilibrium. The low end stands for a tighter complex, the high end for a looser complex.

Sequence of UniProt Q9UNF1 (Q9UNF1 261-521): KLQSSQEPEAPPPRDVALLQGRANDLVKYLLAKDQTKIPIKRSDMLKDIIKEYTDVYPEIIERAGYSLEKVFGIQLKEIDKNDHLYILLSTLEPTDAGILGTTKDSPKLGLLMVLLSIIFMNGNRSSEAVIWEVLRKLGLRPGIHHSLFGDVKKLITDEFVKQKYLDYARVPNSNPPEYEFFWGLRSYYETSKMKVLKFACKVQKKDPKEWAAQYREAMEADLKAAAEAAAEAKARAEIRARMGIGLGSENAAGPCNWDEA

As for “Gαs AHD (amino acids 68–206), purified (from UniProt P63092-2 68-206) (domain or fragment)”, the Kd was determined as 155 nM.
